From US20080280346A1 (published 2008)

Biological target: T1, α-amylase
T1 construct: Coated on ELISA plates at 200 µg/ml in PBS
Experiment: ELISA, plate coated with α-amylase, dimer compared with monomeric VamyHlyA

B1: VamyZHlyA (VHH)
VHH: QVQLVESWGGSVQAGGSLRLSCTAPGFTSNSCRMDWYRQAAGKQREWVSSISTDGRTSYADSVKGRFTISKDKAKDTVYLQMNSLKPEDTAIYYCAVRTNGYRPQSHEFRYWGPGTQVTVSS
modifications: Non-covalent homodimer through the GCN4 leucine zipper; one monomer chain is given.
notes: also called dimeric VHH-HlyA polypeptide; VHH-ZEHlyA hybrid
- fold increase in functional affinity (avidity) against the monomeric form: 10 fold
